Literature values in paper PMC10453832.

Molecular target: F-actin (Oryctolagus cuniculus) (UniProt P68135)

Question: Which Kd does the source give for “β-III-spectrin ABD (from UniProt O15020)” here?
Answer: The Kd was 75 nM.
